Assay results taken from the Human Domainome abundance scans (Beltran et al. 2025).
± gives the uncertainty stated by the source.

B1: POU domain, class 3, transcription factor 1, residues 247 to 324; numbered along this chain, Q03052 (parent)
chain: EDAPSSDDLEQFAKQFKQRRIKLGFTQADVGLALGTLYGNVFSQTTICRFEALQLSFKNMCKLKPLLNKWLEETDSSS

Variants of: B1
Experiment: abundance fitness (aPCA) (normalised: wild type 0, dead -1); higher = more abundant; growth selection in yeast, the domain comes from the species named
Settings: Homo sapiens

In order of falling abundance fitness:
1. EDAPSSDDLEQFAKQFKQRRIKLGFTQADVGLALGTLYGNVFSQTTICRFEALQLSFKNMCKLKPLLNKWLEETDSSN [S78N]  0.256 ± 0.28
2. EDAPSSDDLEQFAKQFKQRRIKLGFTQADVGLALGTLYGNVFSQTTICRFEALQLSFKNMCKLKPLLNKWLEETDSSD [S78D]  0.212 ± 0.16
3. EDAPSSDDLEQFAKQFKQRRIKLGFTQADVGLALGTLYGNVFSQTTICRFEALQLSFKNMCKLKPLLNKWLEETDSSK [S78K]  0.164 ± 0.13
4. EDAPSSDDLEQFAKQFKQRRIKLGFTQADVGLALGTLYGNVFSQTTICRFEALQLSFKNMCKLKPLLNKWLEETDSGS [S77G]  0.159 ± 0.036
5. EDAPSSDDLEQFAKQFKQRRIKLGFTQADVGLALGTLYGNVFSQTTICRFEALQLSFKNMCKLKPLLNKWLEETDSSG [S78G]  0.153 ± 0.073
6. EDAPSSDDLEQFAKQFKQRRIKLGFTQADVGLALGTLYGNVFSQTTICRFEALQLSFKNMCKLKPLLNKWLEETDQSS [S76Q]  0.106 ± 0.11
7. EDAPSSDDLEQFAKQFKQRRIKLGFTQADVGLALGTLYGNVFSQTTICRFEALQLSFKNMCKLKPLLNKWLEETDSQS [S77Q]  0.106 ± 0.056
8. EDAPSSDDLEQFAKQFKQRRIKLGFTQADVGLALGTLYGNVFSQTTICRFEALQLSFKNMCKLKPLLNKWLEETDTSS [S76T]  0.103 ± 0.09
9. EDAPSSDDLEQFAKQFKQRRIKLGFTQADVGLALGTLYGNVFSQTTICRFEALQLSFKNMCKLKPLLNKWLEETDPSS [S76P]  0.099 ± 0.079
10. EDAPSSDDLEQFAKQFKQRRIKLGFTQADVGLALGTLYGNVFSQTTICRFEALQLSFKNMCKLKPLLNKWLEETDSKS [S77K]  0.096 ± 0.063
11. EDAPSSDDLEQFAKQFKQRRIKLGFTQADVGLALGTLYGNVFSQTTICRFEALQLSFKNMCKLKPLLNKWLEETDSSL [S78L]  0.091 ± 0.11
12. EDAPSSDDLEQFAKQFKQRRIKLGFTQADVGLALGTLYGNVFSQTTICRFEALQLSFKNMCKLKPLLNKWLEETDSSC [S78C]  0.08 ± 0.16
13. EDAPSSDDLEQFAKQFKQRRIKLGFTQADVGLALGTLYGNVFSQTTICRFEALQLSFKNMCKLKPLLNKWLEETDSPS [S77P]  0.071 ± 0.069
14. EDAPSSDDLEQFAKQFKQRRIKLGFTQADVGLALGTLYGNVFSQTTICRFEALQLSFKNMCKLKPLLNKWLEETDSAS [S77A]  0.065 ± 0.041
15. EDAPSSDDLEQFAKQFKQRRIKLGFTQADVGLALGTLYGNVFSQTTICRFEALQLSFKNMCKLKPLLNKWLEETDSTS [S77T]  0.061 ± 0.061
16. EDAPSSDDLEQFAKQFKQRRIKLGFTQADVGLALGTLYGNVFSQTTICRFEALQLSFKNMCKLKPLLNKWLEETDRSS [S76R]  0.058 ± 0.054
17. EDAPSSDDLEQFAKQFKQRRIKLGFTQADVGLALGTLYGNVFSQTTICRFEALQLSFKNMCKLKPLLNKWLEETDSHS [S77H]  0.054 ± 0.082
18. EDAPSSDDLEQFAKQFKQRRIKLGFTQADVGLALGTLYGNVFSQTTICRFEALQLSFKNMCKLKPLLNKWLEETDSVS [S77V]  0.045 ± 0.039
19. EDAPSSDDLEQFAKQFKQRRIKLGFTQADVGLALGTLYGNVFSQTTICRFEALQLSFKNMCKLKPLLNKWLEETDSYS [S77Y]  0.044 ± 0.087
20. EDAPSSDDLEQFAKQFKQRRIKLGFTQADVGLALGTLYGNVFSQTTICRFEALQLSFKNMCKLKPLLNKWLEETDSDS [S77D]  0.036 ± 0.064
21. EDAPSSDDLEQFAKQFKQRRIKLGFTQADVGLALGTLYGNVFSQTTICRFEALQLSFKNMCKLKPLLNKWLEETDSES [S77E]  0.002 ± 0.054
22. EDAPSSDDLEQFAKQFKQRRIKLGFTQADVGLALGTLYGNVFSQTTICRFEALQLSFKNMCKLKPLLNKWLEETDVSS [S76V]  -0.015 ± 0.053
23. EDAPSSDDLEQFAKQFKQRRIKLGFTQADVGLALGTLYGNVFSQTTICRFEALQLSFKNMCKLKPLLNKWLEETDSRS [S77R]  -0.022 ± 0.039
24. EDAPSSDDLEQFAKQFKQRRIKLGFTQADVGLALGTLYGNVFSQTTICRFEALQLSFKNMCKLKPLLNKWLEETDSSA [S78A]  -0.023 ± 0.096
25. EDAPSSDDLEQFAKQFKQRRIKLGFTQADVGLALGTLYGNVFSQTTICRFEALQLSFKNMCKLKPLLNKWLEETDSMS [S77M]  -0.029 ± 0.065
26. EDAPSSDDLEQFAKQFKQRRIKLGFTQADVGLALGTLYGNVFSQTTICRFEALQLSFKNMCKLKPLLNKWLEETDSSE [S78E]  -0.045 ± 0.12
27. EDAPSSDDLEQFAKQFKQRRIKLGFTQADVGLALGTLYGNVFSQTTICRFEALQLSFKNMCKLKPLLNKWLEETDSLS [S77L]  -0.098 ± 0.045
28. EDAPSSDDLEQFAKQFKQRRIKLGFTQADVGLALGTLYGNVFSQTTICRFEALQLSFKNMCKLKPLLNKWLEETDSIS [S77I]  -0.113 ± 0.12
29. EDAPSSDDLEQFAKQFKQRRIKLGFTQADVGLALGTLYGNVFSQTTICRFEALQLSFKNMCKLKPLLNKWLEETDSNS [S77N]  -0.141 ± 0.11
30. EDAPSSDDLEQFAKQFKQRRIKLGFTQADVGLALGTLYGNVFSQTTICRFEALQLSFKNMCKLKPLLNKWLEETDSCS [S77C]  -0.165 ± 0.075
31. EDAPSSDDLEQFAKQFKQRRIKLGFTQADVGLALGTLYGNVFSQTTICRFEALQLSFKNMCKLKPLLNKWLEETDSWS [S77W]  -0.19 ± 0.059
32. EDAPSSDDLEQFAKQFKQRRIKLGFTQADVGLALGTLYGNVFSQTTICRFEALQLSFKNMCKLKPLLNKWLEETDSSF [S78F]  -0.199 ± 0.17
33. EDAPSSDDLEQFAKQFKQRRIKLGFTQADVGLALGTLYGNVFSQTTICRFEALQLSFKNMCKLKPLLNKWLEETDSFS [S77F]  -0.243 ± 0.098
34. EDAPSSDDLEQFAKQFKQRRIKLGFTQADVGLALGTLYGNVFSQTTICRFEALQLSFKNMCKLKPLLNKWLEETDSSM [S78M]  -0.256 ± 0.23
35. EDAPSSDDLEQFAKQFKQRRIKLGFTQADVGLALGTLYGNVFSQTTICRFEALQLSFKNMCKLKPLLNKWLEETDWSS [S76W]  -0.495 ± 0.11
